Test results: patent publication US7029865

T1: rhMC-4R (rhesus monkey)
T1 chain: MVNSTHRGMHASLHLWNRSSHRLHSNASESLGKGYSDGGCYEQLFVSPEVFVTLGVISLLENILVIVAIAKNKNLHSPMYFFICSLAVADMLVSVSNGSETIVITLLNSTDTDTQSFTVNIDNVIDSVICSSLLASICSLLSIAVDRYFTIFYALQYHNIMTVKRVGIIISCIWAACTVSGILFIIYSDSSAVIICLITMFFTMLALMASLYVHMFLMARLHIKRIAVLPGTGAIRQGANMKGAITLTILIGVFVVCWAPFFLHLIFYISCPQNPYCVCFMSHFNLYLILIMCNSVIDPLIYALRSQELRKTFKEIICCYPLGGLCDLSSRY


Key:
Experiment in all cases: competition
Conditions in all cases: modification not given
[1] = molecular target: T1, rhMC-4R (rhesus monkey)
[2] = molecular target: hMC-4R (human), P32245
[3] = molecular target: hMC-5R (human), P33032
[4] = molecular target: hMC-3R (human), P41968
Sequence of hMC-3R (human), P41968 (P41968 whole entry): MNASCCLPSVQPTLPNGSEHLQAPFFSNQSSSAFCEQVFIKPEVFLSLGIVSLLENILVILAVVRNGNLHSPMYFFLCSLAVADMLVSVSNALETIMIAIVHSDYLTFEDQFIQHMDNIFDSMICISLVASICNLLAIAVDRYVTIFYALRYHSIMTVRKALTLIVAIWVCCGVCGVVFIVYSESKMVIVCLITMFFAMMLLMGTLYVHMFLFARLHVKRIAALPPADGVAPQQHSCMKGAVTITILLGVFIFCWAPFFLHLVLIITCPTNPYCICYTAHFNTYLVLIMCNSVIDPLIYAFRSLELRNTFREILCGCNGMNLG

Sequence of hMC-5R (human), P33032 (P33032 whole entry): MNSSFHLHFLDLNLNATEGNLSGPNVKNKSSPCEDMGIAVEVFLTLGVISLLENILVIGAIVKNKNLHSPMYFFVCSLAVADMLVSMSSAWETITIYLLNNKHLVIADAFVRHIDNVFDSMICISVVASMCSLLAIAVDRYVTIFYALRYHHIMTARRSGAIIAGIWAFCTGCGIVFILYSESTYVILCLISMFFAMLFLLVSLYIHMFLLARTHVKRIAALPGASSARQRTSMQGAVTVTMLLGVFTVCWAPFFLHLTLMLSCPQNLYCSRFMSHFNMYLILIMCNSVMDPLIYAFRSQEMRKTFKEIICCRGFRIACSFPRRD

IC50 [1] | IC50 [2] | IC50 [3] | IC50 [4] | Binder
27 nM |  |  |  | SYSMEHFRWGKPV [alpha-MSH, P01189]
1.3 nM | 6 nM | 0.4 nM | 6 nM | SYSMEHFRWGKPVGKKRRPVKVYPNGAEDESAEAFPLEF [ACTH1-39, P01189]
